From publication PMC9825155, “Cdk1-mediated threonine phosphorylation of Sam68 modulates its RNA binding, alternative splicing activity and cellular functions”

Key:
Sam68 N-terminal region [1] = target: T1, Sam68 N-terminal region (UniProt Q07666 1-96); assay: NMR titration; second estimate (probably Arg side chains); NMR: HSQC at 4 C (NMR buffer not given in material; purification in 50 mM sodium phosphate, 150 mM NaCl, pH 7.6 N-term / pH 7.0 C-term). Pull-down: 20 mM HEPES; conditions: protein: recombinant; tags: His-tag removed by TEV
T1 sequence (Q07666 1-96): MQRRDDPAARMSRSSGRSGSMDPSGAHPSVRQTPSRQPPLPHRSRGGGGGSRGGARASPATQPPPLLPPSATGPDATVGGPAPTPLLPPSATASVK

Sam68 C-terminal region [2] = target: T2, Sam68 C-terminal region (UniProt Q07666 267-368); assay: as above; conditions: protein: recombinant; tags: GST removed by PreScission
T2 sequence (Q07666 267-368): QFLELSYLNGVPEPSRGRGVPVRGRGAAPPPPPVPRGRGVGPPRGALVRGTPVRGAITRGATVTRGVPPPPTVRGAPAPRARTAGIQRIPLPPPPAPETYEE

Sam68 N-terminal region [3] = target: T1, Sam68 N-terminal region; assay: NMR titration; one of two estimates (backbone or Arg side chains; panel assignment not clear, error suggests eight backbone resonances); text range 1-10 uM; NMR: HSQC at 4 C (NMR buffer not given in material; purification in 50 mM sodium phosphate, 150 mM NaCl, pH 7.6 N-term / pH 7.0 C-term). Pull-down: 20 mM HEPES; conditions: protein: recombinant; tags: His-tag removed by TEV
Sam68 C-terminal region [4] = target: T2, Sam68 C-terminal region; assay: NMR titration; one of two estimates (backbone or Arg side chains; panel assignment not clear, error suggests eight backbone resonances); text range 30-70 uM; NMR: HSQC at 4 C (NMR buffer not given in material; purification in 50 mM sodium phosphate, 150 mM NaCl, pH 7.6 N-term / pH 7.0 C-term). Pull-down: 20 mM HEPES; conditions: protein: recombinant; tags: GST removed by PreScission

## CUGGGUGACACACUAGCUAUAGCAUUAAAAGACCGAGCAAGU (ssRNA) [G8.5 RNA]
Sam68 N-terminal region [1]
  Kd: 12 µM
Sam68 C-terminal region [2]
  Kd: 68 µM
Sam68 N-terminal region [3]
  Kd: 3.5 ± 1.2 µM
Sam68 C-terminal region [4]
  Kd: 32 ± 5 µM
